Consider five molecules from article doi:10.1101/2025.07.11.664400 (bioRxiv, 2025).

B2: RecC (natural protein)
chain: MLRVYHSNRLDVLEALMEFIVERERLDDPFEPEMILVQSTGMAQWLQMTLSQKFGIAANIDFPLPASFIWDMFVRVLPEIPKESAFNKQSMSWKLMTLLPQLLEREDFTLLRHYLTDDSDKRKLFQLSSKAADLFDQYLVYRPDWLAQWETGHLVEGLGEAQAWQAPLWKALVEYTHQLGQPRWHRANLYQRFIETLESATTCPPGLPSRVFICGISALPPVYLQALQALGKHIEIHLLFTNPCRYYWGDIKDPAYLAKLLTRQRRHSFEDRELPLFRDSENAGQLFNSDGEQDVGNPLLASWGKLGRDYIYLLSDLESSQELDAFVDVTPDNLLHNIQSDILELENRAVAGVNIEEFSRSDNKRPLDPLDSSITFHVCHSPQREVEVLHDRLLAMLEEDPTLTPRDIIVMVADIDSYSPFIQAVFGSAPADRYLPYAISDRRARQSHPVLEAFISLLSLPDSRFVSEDVLALLDVPVLAARFDITEEGLRYLRQWVNESGIRWGIDDDNVRELELPATGQHTWRFGLTRMLLGYAMESAQGEWQSVLPYDESSGLIAELVGHLASLLMQLNIWRRGLAQERPLEEWLPVCRDMLNAFFLPDAETEAAMTLIEQQWQAIIAEGLGAQYGDAVPLSLLRDELAQRLDQERISQRFLAGPVNICTLMPMRSIPFKVVCLLGMNDGVYPRQLAPLGFDLMSQKPKRGDRSRRDDDRYLFLEALISAQQKLYISYIGRSIQDNSERFPSVLVQELIDYIGQSHYLPGDEALNCDESEARVKAHLTCLHTRMPFDPQNYQPGERQSYAREWLPAASQAGKAHSEFVQPLPFTLPETVPLETLQRFWAHPVRAFFQMRLQVNFRTEDSEIPDTEPFILEGLSRYQINQQLLNALVEQDDAERLFRRFRAAGDLPYGAFGEIFWETQCQEMQQLADRVIACRQPGQSMEIDLACNGVQITGWLPQVQPDGLLRWRPSLLSVAQGMQLWLEHLVYCASGGNGESRLFLRKDGEWRFPPLAAEQALHYLSQLIEGYREGMSAPLLVLPESGGAWLKTCYDAQNDAMLDDDSTLQKARTKFLQAYEGNMMVRGEGDDIWYQRLWRQLTPETMEAIVEQSQRFLLPLFRFNQS

Data set [1] has as its target B2. Nature of the data set: AUC.
Data set [2] has as its target T1, RecB (E. coli, UniProt P08394 1-1180).
T1 sequence: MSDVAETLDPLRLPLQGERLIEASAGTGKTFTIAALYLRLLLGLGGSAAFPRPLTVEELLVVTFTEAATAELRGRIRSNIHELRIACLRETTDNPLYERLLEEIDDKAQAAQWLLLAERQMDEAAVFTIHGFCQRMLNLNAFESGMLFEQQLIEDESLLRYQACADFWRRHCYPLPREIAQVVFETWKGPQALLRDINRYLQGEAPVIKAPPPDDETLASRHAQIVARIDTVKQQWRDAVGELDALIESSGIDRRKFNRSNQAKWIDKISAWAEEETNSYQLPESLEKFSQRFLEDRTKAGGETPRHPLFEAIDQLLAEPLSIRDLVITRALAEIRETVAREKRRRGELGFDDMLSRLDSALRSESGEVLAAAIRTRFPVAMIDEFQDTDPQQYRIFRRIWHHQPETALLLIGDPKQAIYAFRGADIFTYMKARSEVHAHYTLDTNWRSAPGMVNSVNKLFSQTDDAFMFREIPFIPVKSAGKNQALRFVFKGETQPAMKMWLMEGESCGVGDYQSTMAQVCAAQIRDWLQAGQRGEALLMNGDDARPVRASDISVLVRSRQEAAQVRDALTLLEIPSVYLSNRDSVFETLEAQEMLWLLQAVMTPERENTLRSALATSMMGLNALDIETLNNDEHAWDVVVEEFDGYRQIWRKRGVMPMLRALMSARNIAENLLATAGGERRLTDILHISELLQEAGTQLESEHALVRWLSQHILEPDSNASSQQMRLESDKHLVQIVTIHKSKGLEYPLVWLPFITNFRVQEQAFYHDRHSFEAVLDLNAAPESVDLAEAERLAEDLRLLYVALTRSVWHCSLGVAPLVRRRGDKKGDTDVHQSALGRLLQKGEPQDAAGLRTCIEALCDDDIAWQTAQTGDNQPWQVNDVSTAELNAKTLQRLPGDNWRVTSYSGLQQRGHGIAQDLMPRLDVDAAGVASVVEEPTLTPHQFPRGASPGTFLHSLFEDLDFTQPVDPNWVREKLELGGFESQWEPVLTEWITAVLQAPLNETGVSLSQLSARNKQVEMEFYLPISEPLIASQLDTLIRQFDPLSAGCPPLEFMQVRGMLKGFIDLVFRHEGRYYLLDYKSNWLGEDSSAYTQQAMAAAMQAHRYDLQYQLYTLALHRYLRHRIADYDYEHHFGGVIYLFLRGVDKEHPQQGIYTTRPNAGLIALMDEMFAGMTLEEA
Nature of the data set: AUC.

Data set [3] deals with RecBCD (Escherichia coli, UniProt P08394;P07648;P04993 1-1180;1-1122;1-608). The data set can be described thus: fluorescence competition.
For data set [4], the target named is RecBΔNucCD (Escherichia coli, UniProt P08394;P07648;P04993 1-929;1-1122;1-608). Nature of the data set: fluorescence competition.

B1: RecB^ΔNuc (RecB with the nuclease domain, residues 930-1180, deleted) (domain or fragment)
chain: MSDVAETLDPLRLPLQGERLIEASAGTGKTFTIAALYLRLLLGLGGSAAFPRPLTVEELLVVTFTEAATAELRGRIRSNIHELRIACLRETTDNPLYERLLEEIDDKAQAAQWLLLAERQMDEAAVFTIHGFCQRMLNLNAFESGMLFEQQLIEDESLLRYQACADFWRRHCYPLPREIAQVVFETWKGPQALLRDINRYLQGEAPVIKAPPPDDETLASRHAQIVARIDTVKQQWRDAVGELDALIESSGIDRRKFNRSNQAKWIDKISAWAEEETNSYQLPESLEKFSQRFLEDRTKAGGETPRHPLFEAIDQLLAEPLSIRDLVITRALAEIRETVAREKRRRGELGFDDMLSRLDSALRSESGEVLAAAIRTRFPVAMIDEFQDTDPQQYRIFRRIWHHQPETALLLIGDPKQAIYAFRGADIFTYMKARSEVHAHYTLDTNWRSAPGMVNSVNKLFSQTDDAFMFREIPFIPVKSAGKNQALRFVFKGETQPAMKMWLMEGESCGVGDYQSTMAQVCAAQIRDWLQAGQRGEALLMNGDDARPVRASDISVLVRSRQEAAQVRDALTLLEIPSVYLSNRDSVFETLEAQEMLWLLQAVMTPERENTLRSALATSMMGLNALDIETLNNDEHAWDVVVEEFDGYRQIWRKRGVMPMLRALMSARNIAENLLATAGGERRLTDILHISELLQEAGTQLESEHALVRWLSQHILEPDSNASSQQMRLESDKHLVQIVTIHKSKGLEYPLVWLPFITNFRVQEQAFYHDRHSFEAVLDLNAAPESVDLAEAERLAEDLRLLYVALTRSVWHCSLGVAPLVRRRGDKKGDTDVHQSALGRLLQKGEPQDAAGLRTCIEALCDDDIAWQTAQTGDNQPWQVNDVSTAELNAKTLQRLPGDNWRVTSYSGLQQRGHGIAQDLMPRLDVDAA
As to B1, the binding result in data set [1] is listed as “binds”. B2: the binding result in data set [2] is given as “binds”.

B3: RecD (natural protein)
chain: MKLQKQLLEAVEHKQLRPLDVQFALTVAGDEHPAVTLAAALLSHDAGEGHVCLPLSRLENNEASHPLLATCVSEIGELQNWEECLLASQAVSRGDEPTPMILCGDRLYLNRMWCNERTVARFFNEVNHAIEVDEALLAQTLDKLFPVSDEINWQKVAAAVALTRRISVISGGPGTGKTTTVAKLLAALIQMADGERCRIRLAAPTGKAAARLTESLGKALRQLPLTDEQKKRIPEDASTLHRLLGAQPGSQRLRHHAGNPLHLDVLVVDEASMIDLPMMSRLIDALPDHARVIFLGDRDQLASVEAGAVLGDICAYANAGFTAERARQLSRLTGTHVPAGTGTEAASLRDSLCLLQKSYRFGSDSGIGQLAAAINRGDKTAVKTVFQQDFTDIEKRLLQSGEDYIAMLEEALAGYGRYLDLLQARAEPDLIIQAFNEYQLLCALREGPFGVAGLNERIEQFMQQKRKIHRHPHSRWYEGRPVMIARNDSALGLFNGDIGIALDRGQGTRVWFAMPDGNIKSVQPSRLPEHETTWAMTVHKSQGSEFDHAALILPSQRTPVVTRELVYTAVTRARRRLSLYADERILSAAIATRTERRSGLAALFSSRE
Regarding B3, in data set [1], the binding result was “binds”.

B4: 3'-dT2 (dsDNA)
DNA 1: CCATGGCTCCTGAGCTAGCTGCAGTAGCCTAAAGGATGAAACTAGGATCTTATGCTCCAGTT
DNA 2: CTGGAGCATAAGATCCTAGTTTCATCCTTTAGGCTACTGCAGCTAGCTCAGGAGCCATGGTT
Turning to B4, the Ka in data set [3] was 2.1e+07 M⁻¹; in data set [4], 9.6e+07 M⁻¹.

B5: 3'-dT4 (dsDNA)
DNA 1: CCATGGCTCCTGAGCTAGCTGCAGTAGCCTAAAGGATGAAACTAGGATCTTATGCTCCAGTTTT
DNA 2: CTGGAGCATAAGATCCTAGTTTCATCCTTTAGGCTACTGCAGCTAGCTCAGGAGCCATGGTTTT
On to B5, for which the Ka in data set [3] was found to be 4.7e+07 M⁻¹; in data set [4], 3.3e+08 M⁻¹.
